Reference: patent US20240261333A1, “NOVEL TARGETS FOR ENHANCING ANTI-TUMOR IMMUNITY” (THE BROAD INSTITUTE, INC., priority 2021, published 2024)

Tests used:
TCP1 (human) = TCP1 (human) (UniProt P17987); test: co-IP with mouse anti-FLAG from lysate of cells overexpressing C-FLAG B3GNT2, then mass spectrometry
TFAM (human) [1] = molecular target: TFAM (human) (UniProt Q00059); test: as above
TAF15 (human) = TAF15 (human) (UniProt Q92804); test: as above
SUPT16H (human) [2] = molecular target: SUPT16H (human) (UniProt Q9Y5B9); test: as above
EIF3I (human) = EIF3I (human) (UniProt Q13347); test: as above
MAGED2 (human) = MAGED2 (human) (UniProt Q9UNF1); test: as above
SRP14 (human) [3] = molecular target: SRP14 (human) (UniProt P37108); test: as above
TIMP3 (human) [4] = molecular target: TIMP3 (human) (UniProt P35625); test: as above
TFAM (human) [5] = molecular target: TFAM (human) (UniProt Q00059); test: IgG control IP from lysate of cells overexpressing N-FLAG B3GNT2, then mass spectrometry
SUPT16H (human) [6] = molecular target: SUPT16H (human) (UniProt Q9Y5B9); test: as above
VIM (human) = VIM (human) (UniProt P08670); test: as above
ANXA2 (human) = ANXA2 (human) (UniProt P07355); test: as above
CASC3 (human) = CASC3 (human) (UniProt O15234); test: as above
PABPC1 (human) = PABPC1 (human) (UniProt P11940); test: as above
SRP14 (human) [7] = molecular target: SRP14 (human) (UniProt P37108); test: as above
TIMP3 (human) [8] = molecular target: TIMP3 (human) (UniProt P35625); test: as above
EEF1A1 = EEF1A1 (UniProt P68104); test: co-IP with mouse IgG control, mass spectrometry; lysate of N-FLAG B3GNT2 cells
FABP5 = FABP5 (UniProt Q01469); test: as above
RCC2 = RCC2 (UniProt Q9P258); test: as above
HNRNPF = HNRNPF (UniProt P52597); test: as above
S100A8 = S100A8 (UniProt P05109); test: as above
S100A9 = S100A9 (UniProt P06702); test: as above
SLIRP = SLIRP (UniProt Q9GZT3); test: as above
AHNAK = AHNAK (UniProt Q09666); test: as above
RPL21 = RPL21 (UniProt P46778); test: as above
RPLP2 = RPLP2 (UniProt P05387); test: as above
TRIM21 = TRIM21 (UniProt P19474); test: as above
YBX3 = YBX3 (UniProt P16989); test: as above
PPIA = PPIA (UniProt P62937); test: as above
HNRNPA1 = HNRNPA1 (UniProt P09651); test: as above
TPI1 = TPI1 (UniProt P60174); test: as above
LTF = LTF (UniProt P02788); test: as above
RPL10A = RPL10A (UniProt P62906); test: as above
LYZ = LYZ (UniProt P61626); test: as above
RPL11 = RPL11 (UniProt P62913); test: as above
ENO1 = ENO1 (UniProt P06733); test: as above
RPS15A = RPS15A (UniProt P62244); test: as above

Sequence of SRP14 (human) (P37108 2-136 limits assumed): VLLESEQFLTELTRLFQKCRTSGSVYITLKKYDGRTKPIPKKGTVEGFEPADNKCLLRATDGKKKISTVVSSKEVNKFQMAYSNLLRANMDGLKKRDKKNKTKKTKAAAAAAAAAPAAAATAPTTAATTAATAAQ
Sequence of SUPT16H (human) (Q9Y5B9 2-1047 limits assumed): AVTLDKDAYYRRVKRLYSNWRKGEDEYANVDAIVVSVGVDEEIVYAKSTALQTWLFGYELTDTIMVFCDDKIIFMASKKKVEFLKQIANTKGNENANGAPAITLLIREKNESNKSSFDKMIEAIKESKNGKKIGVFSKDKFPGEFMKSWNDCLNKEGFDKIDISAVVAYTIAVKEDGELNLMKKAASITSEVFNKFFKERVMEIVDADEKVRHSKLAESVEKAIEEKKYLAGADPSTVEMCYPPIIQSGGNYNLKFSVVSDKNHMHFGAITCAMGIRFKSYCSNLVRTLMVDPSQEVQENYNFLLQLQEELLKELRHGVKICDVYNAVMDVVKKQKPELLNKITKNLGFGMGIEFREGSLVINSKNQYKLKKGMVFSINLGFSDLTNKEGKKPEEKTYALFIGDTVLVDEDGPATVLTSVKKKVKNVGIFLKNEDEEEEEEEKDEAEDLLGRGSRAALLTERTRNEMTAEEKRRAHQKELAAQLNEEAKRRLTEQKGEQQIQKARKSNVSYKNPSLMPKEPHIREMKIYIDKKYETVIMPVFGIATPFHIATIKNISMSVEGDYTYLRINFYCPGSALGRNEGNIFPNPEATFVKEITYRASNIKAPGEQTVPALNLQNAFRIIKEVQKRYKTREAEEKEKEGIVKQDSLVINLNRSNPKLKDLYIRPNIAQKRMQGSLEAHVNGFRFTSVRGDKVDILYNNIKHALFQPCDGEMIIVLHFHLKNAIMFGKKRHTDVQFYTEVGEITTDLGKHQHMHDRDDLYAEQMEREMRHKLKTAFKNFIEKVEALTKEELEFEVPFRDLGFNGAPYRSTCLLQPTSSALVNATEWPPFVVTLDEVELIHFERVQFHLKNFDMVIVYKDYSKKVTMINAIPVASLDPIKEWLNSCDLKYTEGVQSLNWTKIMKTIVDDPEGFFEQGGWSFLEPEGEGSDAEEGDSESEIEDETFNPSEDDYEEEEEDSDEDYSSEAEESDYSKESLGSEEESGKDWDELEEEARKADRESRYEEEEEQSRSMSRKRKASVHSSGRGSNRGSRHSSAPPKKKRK
Sequence of TIMP3 (human) (P35625 24-211 limits assumed): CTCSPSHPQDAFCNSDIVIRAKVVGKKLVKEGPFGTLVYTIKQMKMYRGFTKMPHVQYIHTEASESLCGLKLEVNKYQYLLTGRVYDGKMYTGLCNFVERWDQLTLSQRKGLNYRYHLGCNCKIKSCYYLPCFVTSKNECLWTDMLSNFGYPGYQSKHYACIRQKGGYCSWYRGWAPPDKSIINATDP
Sequence of TFAM (human) (Q00059 43-246 limits assumed): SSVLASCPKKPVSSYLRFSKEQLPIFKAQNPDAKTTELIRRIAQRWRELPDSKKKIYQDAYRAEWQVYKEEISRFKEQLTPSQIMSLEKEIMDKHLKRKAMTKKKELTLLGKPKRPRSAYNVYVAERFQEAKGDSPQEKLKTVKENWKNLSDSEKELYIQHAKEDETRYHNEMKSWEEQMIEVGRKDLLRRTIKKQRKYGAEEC
Sequence of TAF15 (human) (Q92804 other isoform, or with tags, fused parts or gaps limits assumed): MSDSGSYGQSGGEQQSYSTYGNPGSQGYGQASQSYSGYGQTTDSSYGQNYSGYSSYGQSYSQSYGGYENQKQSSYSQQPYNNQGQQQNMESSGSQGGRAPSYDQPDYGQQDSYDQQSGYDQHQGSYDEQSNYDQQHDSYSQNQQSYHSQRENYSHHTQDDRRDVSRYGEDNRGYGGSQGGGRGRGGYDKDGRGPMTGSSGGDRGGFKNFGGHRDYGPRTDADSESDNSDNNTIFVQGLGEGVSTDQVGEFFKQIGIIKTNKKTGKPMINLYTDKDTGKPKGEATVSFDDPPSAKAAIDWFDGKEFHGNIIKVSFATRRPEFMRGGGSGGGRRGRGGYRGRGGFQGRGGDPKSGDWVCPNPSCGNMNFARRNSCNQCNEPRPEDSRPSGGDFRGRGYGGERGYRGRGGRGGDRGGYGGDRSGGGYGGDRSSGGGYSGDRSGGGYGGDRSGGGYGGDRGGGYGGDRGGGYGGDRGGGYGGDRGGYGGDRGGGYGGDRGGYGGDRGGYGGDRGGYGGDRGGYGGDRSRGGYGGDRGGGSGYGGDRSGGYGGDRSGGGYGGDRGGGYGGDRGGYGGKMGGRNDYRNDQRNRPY
Sequence of LYZ (P61626 19-148 limits assumed): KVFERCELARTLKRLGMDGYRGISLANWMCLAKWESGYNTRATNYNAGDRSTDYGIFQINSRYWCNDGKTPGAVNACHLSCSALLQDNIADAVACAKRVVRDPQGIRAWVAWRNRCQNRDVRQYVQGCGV
Sequence of PPIA (P62937 2-165 limits assumed): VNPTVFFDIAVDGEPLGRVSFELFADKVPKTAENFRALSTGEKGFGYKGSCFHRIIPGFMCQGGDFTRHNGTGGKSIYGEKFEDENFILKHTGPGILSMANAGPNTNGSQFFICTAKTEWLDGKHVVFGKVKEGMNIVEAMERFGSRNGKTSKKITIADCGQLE
Sequence of EEF1A1 (P68104 2-462 limits assumed): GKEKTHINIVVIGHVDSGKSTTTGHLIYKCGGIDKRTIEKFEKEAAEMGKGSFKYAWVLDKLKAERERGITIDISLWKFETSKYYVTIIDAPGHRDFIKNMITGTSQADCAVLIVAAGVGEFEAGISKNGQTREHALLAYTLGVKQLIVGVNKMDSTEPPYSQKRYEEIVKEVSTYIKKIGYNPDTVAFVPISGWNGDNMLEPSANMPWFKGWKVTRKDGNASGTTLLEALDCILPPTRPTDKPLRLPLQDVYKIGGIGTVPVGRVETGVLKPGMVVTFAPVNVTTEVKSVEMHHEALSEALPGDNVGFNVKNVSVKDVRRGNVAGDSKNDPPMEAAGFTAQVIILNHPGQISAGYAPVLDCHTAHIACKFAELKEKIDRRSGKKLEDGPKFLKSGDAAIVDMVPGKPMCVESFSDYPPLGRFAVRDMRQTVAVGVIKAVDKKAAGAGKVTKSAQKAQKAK
Sequence of EIF3I (human) (Q13347 whole entry): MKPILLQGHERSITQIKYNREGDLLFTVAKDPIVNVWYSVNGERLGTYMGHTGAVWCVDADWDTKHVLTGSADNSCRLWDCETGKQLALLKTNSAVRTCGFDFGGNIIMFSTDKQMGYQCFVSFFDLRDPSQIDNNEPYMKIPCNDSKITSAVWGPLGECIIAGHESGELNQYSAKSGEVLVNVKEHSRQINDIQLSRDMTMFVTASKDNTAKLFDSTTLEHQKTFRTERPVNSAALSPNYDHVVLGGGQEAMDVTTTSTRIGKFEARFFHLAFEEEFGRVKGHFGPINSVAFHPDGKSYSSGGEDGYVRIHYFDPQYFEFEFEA
Sequence of HNRNPA1 (P09651 2-372 limits assumed): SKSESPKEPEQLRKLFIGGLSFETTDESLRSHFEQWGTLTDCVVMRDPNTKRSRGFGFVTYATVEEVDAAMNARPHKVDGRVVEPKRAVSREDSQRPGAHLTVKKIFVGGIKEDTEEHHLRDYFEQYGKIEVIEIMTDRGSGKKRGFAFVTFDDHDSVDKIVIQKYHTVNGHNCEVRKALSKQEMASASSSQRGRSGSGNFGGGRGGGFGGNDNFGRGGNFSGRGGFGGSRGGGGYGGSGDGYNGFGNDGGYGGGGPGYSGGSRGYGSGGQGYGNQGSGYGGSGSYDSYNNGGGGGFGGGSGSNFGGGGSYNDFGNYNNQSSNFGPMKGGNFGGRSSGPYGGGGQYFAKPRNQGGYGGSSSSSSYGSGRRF
Sequence of TRIM21 (P19474 whole entry): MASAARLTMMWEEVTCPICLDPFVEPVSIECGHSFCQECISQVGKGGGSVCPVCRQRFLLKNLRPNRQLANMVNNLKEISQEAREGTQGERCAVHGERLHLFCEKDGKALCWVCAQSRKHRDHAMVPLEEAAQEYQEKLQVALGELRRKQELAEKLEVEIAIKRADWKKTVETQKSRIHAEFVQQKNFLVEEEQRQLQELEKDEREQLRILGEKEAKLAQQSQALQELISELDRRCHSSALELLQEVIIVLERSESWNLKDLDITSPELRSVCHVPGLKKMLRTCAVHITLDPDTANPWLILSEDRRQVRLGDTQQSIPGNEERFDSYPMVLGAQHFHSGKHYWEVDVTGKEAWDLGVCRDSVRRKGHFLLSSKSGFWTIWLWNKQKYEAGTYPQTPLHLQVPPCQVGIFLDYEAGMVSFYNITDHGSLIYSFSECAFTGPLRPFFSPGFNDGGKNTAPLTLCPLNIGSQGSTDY
Sequence of RPLP2 (P05387 whole entry): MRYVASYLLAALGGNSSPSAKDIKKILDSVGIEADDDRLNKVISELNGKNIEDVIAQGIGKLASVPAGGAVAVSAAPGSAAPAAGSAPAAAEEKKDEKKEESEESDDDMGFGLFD
Sequence of S100A9 (P06702 whole entry): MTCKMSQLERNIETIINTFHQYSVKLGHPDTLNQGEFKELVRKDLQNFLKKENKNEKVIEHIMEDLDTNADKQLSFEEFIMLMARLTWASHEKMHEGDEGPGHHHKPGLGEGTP
Sequence of ANXA2 (human) (P07355 other isoform, or with tags, fused parts or gaps limits assumed): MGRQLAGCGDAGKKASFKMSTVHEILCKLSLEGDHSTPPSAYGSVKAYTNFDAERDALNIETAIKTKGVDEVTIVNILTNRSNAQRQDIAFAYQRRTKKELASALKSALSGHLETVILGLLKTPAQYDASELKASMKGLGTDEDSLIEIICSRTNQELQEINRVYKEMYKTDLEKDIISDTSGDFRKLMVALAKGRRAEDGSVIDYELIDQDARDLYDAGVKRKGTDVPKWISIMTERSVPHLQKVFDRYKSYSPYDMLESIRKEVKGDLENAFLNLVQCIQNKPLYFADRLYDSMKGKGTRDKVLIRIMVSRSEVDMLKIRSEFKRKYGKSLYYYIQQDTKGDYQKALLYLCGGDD
Sequence of S100A8 (P05109 whole entry): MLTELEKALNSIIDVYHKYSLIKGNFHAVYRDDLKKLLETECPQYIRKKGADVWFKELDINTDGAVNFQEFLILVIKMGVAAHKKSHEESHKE

“C-terminal FLAG tagged B3GNT2 (from UniProt Q9NY97 1-397) (enzyme)” was tested, and the co-IP mass spectrometry count (C-term flag) (TCP1 (human)) was 3, the co-IP mass spectrometry count (C-term flag) (TFAM (human) [1]) was 3 and the co-IP mass spectrometry count (C-term flag) (TAF15 (human)) was 10. It also gave a co-IP mass spectrometry count (C-term flag) (SUPT16H (human) [2]) of 3, a co-IP mass spectrometry count (C-term flag) (EIF3I (human)) of 3 and a co-IP mass spectrometry count (C-term flag) (MAGED2 (human)) of 3. It also gave a co-IP mass spectrometry count (C-term flag) (SRP14 (human) [3]) of 3 and a co-IP mass spectrometry count (C-term flag) (TIMP3 (human) [4]) of 3.
“IgG control (Millipore Sigma 12-371) (antibody)” gave a co-IP mass spectrometry count (N-term IgG) (TFAM (human) [5]) of 0, a co-IP mass spectrometry count (N-term IgG) (SUPT16H (human) [6]) of 0 and a co-IP mass spectrometry count (N-term IgG) (VIM (human)) of 452. For the same substance, the co-IP mass spectrometry count (N-term IgG) (ANXA2 (human)) was 15, the co-IP mass spectrometry count (N-term IgG) (CASC3 (human)) was 0 and the co-IP mass spectrometry count (N-term IgG) (PABPC1 (human)) was 37. For the same substance, the co-IP mass spectrometry count (N-term IgG) (SRP14 (human) [7]) was 0, the co-IP mass spectrometry count (N-term IgG) (TIMP3 (human) [8]) was 0 and the co-IP mass spectrometry count (EEF1A1) was 8. The co-IP mass spectrometry count (FABP5) was 2, the co-IP mass spectrometry count (RCC2) was 0 and the co-IP mass spectrometry count (HNRNPF) was 0. It also gave a co-IP mass spectrometry count (S100A8) of 4, a co-IP mass spectrometry count (S100A9) of 0 and a co-IP mass spectrometry count (SLIRP) of 0. The co-IP mass spectrometry count (AHNAK) was 0, the co-IP mass spectrometry count (RPL21) was 5 and the co-IP mass spectrometry count (RPLP2) was 3. It also gave a co-IP mass spectrometry count (TRIM21) of 0, a co-IP mass spectrometry count (YBX3) of 0 and a co-IP mass spectrometry count (PPIA) of 0. It also gave a co-IP mass spectrometry count (HNRNPA1) of 4, a co-IP mass spectrometry count (TPI1) of 2 and a co-IP mass spectrometry count (LTF) of 6. For the same substance, the co-IP mass spectrometry count (RPL10A) was 4, the co-IP mass spectrometry count (LYZ) was 4 and the co-IP mass spectrometry count (RPL11) was 3. It also gave a co-IP mass spectrometry count (ENO1) of 2 and a co-IP mass spectrometry count (RPS15A) of 2.
